Measurements as given in paper PMC11444341 (The journal of physical chemistry. B, 2015).
Where two headings read alike, the source gives them in different places. Where no end group is shown, it is not given here.

Assays:
calcitonin oligomer = conditions: cited from earlier work
[1] = 4 °C, 100 mM DCl (pH 1); cited from earlier work
[2] = cited from earlier work
[3] = Pyrene fluorescence II/IIII ratio assay for micelle-like oligomer formation; format: physicochemical; conditions: pH 7.3, 20 mM phosphate buffer, 50 mM NaCl, 1 μM pyrene, 25 °C

O=C(O[C@@H]1Cc2c(O)cc(O)cc2O[C@@H]1c1cc(O)c(O)c(O)c1)c1cc(O)c(O)c(O)c1 [EGCG]
effect on formation of the calcitonin oligomer (calcitonin oligomer): completely abolish

Aβ1–40: amyloid-beta peptide 1–40, linked to Alzheimer's disease
length of spherocylindrical micelle structures (SANS) [1]: 11 nm | radius of spherocylindrical micelle structures (SANS) [1]: 2.4 nm | critical concentration ([2]; 10 mM phosphate buffer, pH 7.3): 8 µM | critical concentration ([2]; 0.1 M Tris, pH 7.4 20 °C): 25 µM | critical concentration for micelle-like oligomers ([2]; pyrene and surface tension studies): 17 µM

hIAPP1–19: N-terminal 1–19 fragment of hIAPP, significantly less amyloidogenic than the full-length peptide (KCNTATCATQRLANFLVHS; ends and bridges not checked; cysteine pairing not given here; UniProt P10997 34-52, looked up, fragment)
micelle-like oligomer formation over the concentration range tested (pyrene II/IIII) [3]: did not form oligomers
